Measurements as given in patent publication US20230183713A1, “SITE-SPECIFIC RECOMBINASES FOR EFFICIENT AND SPECIFIC GENOME EDITING” (TECHNISCHE UNIVERSITÄt DRESDEN, published 2023).

What was measured:
[1] = target: T1, Cre recombinase monomer with W315L mutation
T1 chain: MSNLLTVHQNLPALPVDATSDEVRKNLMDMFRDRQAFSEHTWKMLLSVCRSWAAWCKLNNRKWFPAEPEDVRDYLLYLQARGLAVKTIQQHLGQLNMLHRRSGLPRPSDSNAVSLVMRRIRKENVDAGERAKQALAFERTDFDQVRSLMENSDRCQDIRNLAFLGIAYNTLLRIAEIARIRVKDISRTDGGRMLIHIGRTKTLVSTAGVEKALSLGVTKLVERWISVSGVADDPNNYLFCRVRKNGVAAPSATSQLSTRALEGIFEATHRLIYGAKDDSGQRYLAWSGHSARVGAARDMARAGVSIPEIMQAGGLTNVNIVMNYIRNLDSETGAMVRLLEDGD

[2] = target: T2, Cre recombinase monomer with W315M mutation
T2 chain: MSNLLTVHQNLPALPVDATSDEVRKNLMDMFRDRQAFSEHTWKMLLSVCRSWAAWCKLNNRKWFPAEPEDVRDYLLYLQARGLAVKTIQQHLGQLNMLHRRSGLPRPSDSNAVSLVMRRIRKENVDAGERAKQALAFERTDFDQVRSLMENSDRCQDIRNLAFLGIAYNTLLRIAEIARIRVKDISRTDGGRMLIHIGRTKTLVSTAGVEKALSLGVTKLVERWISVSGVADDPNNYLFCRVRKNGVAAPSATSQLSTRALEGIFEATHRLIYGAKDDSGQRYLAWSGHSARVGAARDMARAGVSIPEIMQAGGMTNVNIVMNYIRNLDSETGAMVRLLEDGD

[3] = target: T3, Cre recombinase monomer with W315N mutation
T3 chain: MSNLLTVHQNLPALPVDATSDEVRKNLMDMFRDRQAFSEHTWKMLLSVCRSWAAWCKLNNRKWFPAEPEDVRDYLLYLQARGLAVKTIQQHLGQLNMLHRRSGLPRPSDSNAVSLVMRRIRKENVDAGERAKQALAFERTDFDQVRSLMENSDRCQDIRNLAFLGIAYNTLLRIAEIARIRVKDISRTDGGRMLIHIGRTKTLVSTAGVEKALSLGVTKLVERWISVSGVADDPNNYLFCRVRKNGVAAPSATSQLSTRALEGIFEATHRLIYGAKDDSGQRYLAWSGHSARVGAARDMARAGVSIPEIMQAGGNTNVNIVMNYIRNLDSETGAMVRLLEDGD

[4] = target: T4, Cre recombinase monomer with W315S mutation
T4 chain: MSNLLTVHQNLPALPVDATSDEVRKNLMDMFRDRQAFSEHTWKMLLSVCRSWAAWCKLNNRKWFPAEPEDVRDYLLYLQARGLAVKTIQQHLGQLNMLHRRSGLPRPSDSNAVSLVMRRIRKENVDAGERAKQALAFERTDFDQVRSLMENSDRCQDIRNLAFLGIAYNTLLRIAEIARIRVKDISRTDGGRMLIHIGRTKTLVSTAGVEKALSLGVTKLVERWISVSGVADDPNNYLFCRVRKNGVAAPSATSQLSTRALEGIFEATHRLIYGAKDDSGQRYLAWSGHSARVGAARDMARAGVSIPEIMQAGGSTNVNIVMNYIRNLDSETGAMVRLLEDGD

[5] = target: T5, Cre recombinase monomer with Y324A mutation
T5 chain: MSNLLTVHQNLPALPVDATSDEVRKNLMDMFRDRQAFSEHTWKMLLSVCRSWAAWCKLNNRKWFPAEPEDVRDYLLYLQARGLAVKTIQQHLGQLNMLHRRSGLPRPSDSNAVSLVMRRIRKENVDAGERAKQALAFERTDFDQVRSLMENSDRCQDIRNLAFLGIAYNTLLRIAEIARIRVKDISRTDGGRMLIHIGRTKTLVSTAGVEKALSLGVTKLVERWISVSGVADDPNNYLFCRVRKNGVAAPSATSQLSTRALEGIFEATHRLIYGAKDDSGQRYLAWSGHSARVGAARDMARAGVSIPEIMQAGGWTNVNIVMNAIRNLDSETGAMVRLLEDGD

[6] = target: T6, Cre recombinase monomer with Y324H mutation
T6 chain: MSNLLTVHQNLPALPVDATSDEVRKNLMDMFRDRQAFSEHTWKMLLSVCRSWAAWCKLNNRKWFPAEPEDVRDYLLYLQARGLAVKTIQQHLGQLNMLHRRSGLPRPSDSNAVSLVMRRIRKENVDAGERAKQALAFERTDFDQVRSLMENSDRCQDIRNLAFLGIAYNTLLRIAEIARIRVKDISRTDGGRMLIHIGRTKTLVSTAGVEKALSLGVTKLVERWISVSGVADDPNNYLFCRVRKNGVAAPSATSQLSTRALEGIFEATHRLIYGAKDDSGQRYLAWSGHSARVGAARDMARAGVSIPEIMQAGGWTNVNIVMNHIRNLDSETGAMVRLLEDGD

[7] = target: T7, Cre recombinase monomer with Y324I mutation
T7 chain: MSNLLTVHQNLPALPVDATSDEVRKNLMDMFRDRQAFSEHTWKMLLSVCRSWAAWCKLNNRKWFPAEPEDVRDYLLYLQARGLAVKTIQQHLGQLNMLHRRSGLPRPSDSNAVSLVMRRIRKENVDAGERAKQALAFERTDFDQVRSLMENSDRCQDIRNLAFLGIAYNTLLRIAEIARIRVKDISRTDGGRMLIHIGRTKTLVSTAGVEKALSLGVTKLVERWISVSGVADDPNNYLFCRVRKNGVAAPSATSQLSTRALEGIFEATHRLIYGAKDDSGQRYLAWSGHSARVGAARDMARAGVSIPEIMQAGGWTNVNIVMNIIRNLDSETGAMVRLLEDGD

[8] = target: T8, Cre recombinase monomer with Y324K mutation
T8 chain: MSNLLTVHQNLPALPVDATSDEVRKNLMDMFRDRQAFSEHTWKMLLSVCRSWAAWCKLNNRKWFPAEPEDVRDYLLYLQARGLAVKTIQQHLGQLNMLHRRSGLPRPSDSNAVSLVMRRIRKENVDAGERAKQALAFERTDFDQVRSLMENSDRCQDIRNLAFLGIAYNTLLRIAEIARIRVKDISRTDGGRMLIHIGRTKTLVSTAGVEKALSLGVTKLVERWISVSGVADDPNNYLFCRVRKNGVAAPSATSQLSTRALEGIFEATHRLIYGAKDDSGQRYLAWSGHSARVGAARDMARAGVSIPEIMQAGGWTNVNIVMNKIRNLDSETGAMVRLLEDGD

B1: Cre recombinase monomer with Q311R mutation (protein)
chain: MSNLLTVHQNLPALPVDATSDEVRKNLMDMFRDRQAFSEHTWKMLLSVCRSWAAWCKLNNRKWFPAEPEDVRDYLLYLQARGLAVKTIQQHLGQLNMLHRRSGLPRPSDSNAVSLVMRRIRKENVDAGERAKQALAFERTDFDQVRSLMENSDRCQDIRNLAFLGIAYNTLLRIAEIARIRVKDISRTDGGRMLIHIGRTKTLVSTAGVEKALSLGVTKLVERWISVSGVADDPNNYLFCRVRKNGVAAPSATSQLSTRALEGIFEATHRLIYGAKDDSGQRYLAWSGHSARVGAARDMARAGVSIPEIMRAGGWTNVNIVMNYIRNLDSETGAMVRLLEDGD
- Median dimer activity (recombination on loxP) [1]: 68%
- Median dimer activity (recombination on loxP) [2]: 95%
- Median dimer activity (recombination on loxP) [3]: 64%
- Median dimer activity (recombination on loxP) [4]: 37%
- Median dimer activity (recombination on loxP) [5]: 93%
- Median dimer activity (recombination on loxP) [6]: 76%
- Median dimer activity (recombination on loxP) [7]: 96%
- Median dimer activity (recombination on loxP) [8]: 85%
